In paper PMC3168509, “Insights into the Role of Yeast eIF2A in IRES-Mediated Translation” (PLoS ONE, 2011):

Target: T1, GST-eEF1A (full-length eEF1A/Tef1p fused to GST) (S. cerevisiae, UniProt P02994 1-458)
T1 construct: yeast eEF1A, TEF1 amplified by PCR from genomic DNA; also called GST-TEF1; full-length eEF1A fusion protein; not shown: GST, N-terminal, kept
T1 sequence (looked up): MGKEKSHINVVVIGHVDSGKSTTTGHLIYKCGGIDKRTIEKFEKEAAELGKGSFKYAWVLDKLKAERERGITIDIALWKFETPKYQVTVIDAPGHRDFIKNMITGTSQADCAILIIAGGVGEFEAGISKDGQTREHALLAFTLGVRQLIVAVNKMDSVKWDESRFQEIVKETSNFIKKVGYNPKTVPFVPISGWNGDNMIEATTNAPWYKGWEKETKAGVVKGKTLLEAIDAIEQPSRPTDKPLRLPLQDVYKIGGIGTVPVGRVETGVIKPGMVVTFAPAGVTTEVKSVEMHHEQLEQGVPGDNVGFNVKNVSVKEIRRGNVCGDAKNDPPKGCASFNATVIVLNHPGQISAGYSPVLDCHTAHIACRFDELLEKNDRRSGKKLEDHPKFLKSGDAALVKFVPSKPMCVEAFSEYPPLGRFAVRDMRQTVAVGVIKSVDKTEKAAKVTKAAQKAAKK
Test: pull-down; full-length GST-eEF1A on glutathione-Sepharose with lysates of ΔeIF2A yeast carrying YCplac111-YP, grown 1 h without or with 6% ethanol; Western blot for HA, bands quantified with Image J against 8% input
Conditions: one partner purified

- fold increase in interaction (6% ethanol against untreated cells): 2 fold
B1: HA-eIF2A (N-terminally HA-tagged eukaryotic initiation factor 2A expressed from YCplac111-YP) (natural protein, S. cerevisiae, UniProt P53235 1-642, looked up)
chain: MSSQFFLKTSQDIELFQSYPTFEQSNTNSKDFPVISSVLSPCGRFLALSTKENVKVFTGPCLDNVLLTMKLSDVYDLHFSPAGNYLSTWERASIQDPNHKNVKVWYLNKPFKKDCVSEDIVPAYEYQAKSQSGWFLQFSKLDNYGLRLFKHDLKIVKLSSANADNFDFQSPFAVLSDDETSQHFTTYLISPAEHPTICTFTPEKGGKPAQLIIWALSEGKITKKIASKTFFKADSCQLKWNPLGNAILCLAITDFDSSNKSYYGENTLYLLSFQGVNGTLGGNSVRVSLTTGPVHDFTWSPTSRQFGVIAGYMPATISFFDLRGNVVHSLPQQAKNTMLFSPSGHYILIAGFGNLQGSVEILDRLDKFKCVSKFDATNTSVCKWSPGGEFIMTATTSPRLRVDNGVKIWHVSGSLVFVKEFKELLKVDWRSPCNYKTLENKDEAFFENHIINNWEPLPDSTTSSLDPKISNKSELQIHSSVQEYISQHPSREASSNGNGSKAKAGGAYKPPHARRTGGGRIVPGVPPGAAKKTIPGLVPGMSANKDANTKNRRRRANKKSSETSPDSTPAPSAPASTNAPTNNKETSPEEKKIRSLLKKLRAIETLKERQAVGDKLEDTQVLKIQTEEKVLKDLEKLGWKDE
notes: yeast eukaryotic initiation factor 2A, encoded by YGR054w; the HA-tagged eIF2A coding region behind its natural promoter; the kind of modification is not known; also called HA-tagged eIF2A; YGR054w; source: BY4684 ΔeIF2A yeast transformed with YCplac111-YP (native promoter), in lysate; not shown: HA, N-terminal, kept
